This is an account of results in article PMC5587793.

A word on the Kd: it is the concentration at which binding is half-saturated.

Series [1] addresses T1, His-GapR (Caulobacter crescentus (NA1000?)) (UniProt B8H4R9).
T1 sequence: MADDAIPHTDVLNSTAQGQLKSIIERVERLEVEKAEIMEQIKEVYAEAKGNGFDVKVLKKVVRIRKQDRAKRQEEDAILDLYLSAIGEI
The series can be described thus: EMSA. A general note: In EMSA bound probe runs differently from free probe, usually more slowly.

Another series concerns the target T2, His-GapR (Caulobacter crescentus, UniProt B8H4R9 1-89).
T2 sequence: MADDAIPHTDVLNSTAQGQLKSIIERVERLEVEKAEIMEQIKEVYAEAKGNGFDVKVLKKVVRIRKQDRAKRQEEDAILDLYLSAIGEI
Briefly: EMSA.

On to Cori DNA (EMSA of Figure S6), for which, in series [1], the Kd turned out to be 10 nM.

B1: CoriUP oligonucleotide (dsDNA)
DNA 1: GCAGGGCAAGTGGTTAAGCATATGTTAACGGATGATCCACAGG
DNA 2: CCTGTGGATCATCCGTTAACATATGCTTAACCACTTGCCCTGC
modifications: 3 bp up-replication mutation
As to B1, in the series with His-GapR, the binding result is listed as “binds”.
